This sample holds only a part of the variants without activity.
B1: TPR 5TU (parent)
chain: GGAUCUUCUCGAUCUAACAAAAAAGACAAAUCUGCCACAAAGCUUGAGAGCAUCUUCGGAUGCAGAGGCGGCAGCCUUCGGUGGCGCGAUAGCGCCAACGUUCUCAACUAUGACACGCAAAACGCGUGCUCCGUUGAAUGGAGUUUAUCAUG

Variants of: B1
Assay: polymerase ribozyme fitness, log enrichment relative to wild type (log ratio); higher = more active; in vitro selection for triplet polymerase activity
Outline: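 The heterodimeric triplet polymerase ribozyme's subunits were each mutagenized into PCR-built libraries and transcribed. Every library was selected once, in triplicate, by annealing with a biotinylated primer, the partner subunit and triplets, incubating frozen at −7 °C, gel-excising extended constructs, capturing on streptavidin beads and running RT-PCR. Input and output libraries were Illumina-sequenced, with genotypes kept only at ≥10 input reads and ≥1 read per output. Fitness, from inverse-variance-weighted replicate averages, is the base-2 logarithm of genotype enrichment over wild-type enrichment.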

Variant | polymerase ribozyme fitness (log ratio)
A66G A73C C85G A107U | ≤ -4.2
A16G U31G G46A U55A C95G | ≤ -4.2
C69U C87A U90A G117U | ≤ -4.2
U6A U15G G46C C76U C93G | ≤ -4.2
A47G A49C U104G | ≤ -4.2
A12C U53A C87U | -2
G59U C79A G86A A89G A122G G141C | ≤ -4.2
C38U A49G G92U C103U G124U | -1.7
A40U A41C A60G A98U A150U | 0.591
A24U C27G C38U C87U A91G C93G G133U | ≤ -4.2
C54G C69A A73G G86U C105A C118A C125A U148A | ≤ -4.2
U53A U61A | -1.15
A106G G141U | 2.01
U4G C38U G86C C105G A138C | ≤ -4.2
A23U G48A C87G U104C | ≤ -4.2
C57U U145G | -0.309
U4A A41G G84A U139G U146C | -0.701
A22U A37C C96U A142C | -1.63
C27U G62C C63U G94U U104C G152U | ≤ -4.2
C32G A41C A60U G92U G140C | ≤ -4.2
A60U U61C | ≤ -4.2

Variant | polymerase ribozyme fitness (log ratio)
C18G C123G | -0.253
A21C G50C | -1.92
A60C G68A C95A C96G U134G U139G | ≤ -4.2
A49C G50C C54G G70A C87G A89G C103U | ≤ -4.2
A39G U53C A91U C95G | ≤ -4.2
A41U U53G U56C U146C U151G | ≤ -4.2
C63U G83C C96U C105G G117U | -2.06
A52G G67A G126U | ≤ -4.2
A37U C57U U101G | -0.608
A17U U90A U102A U127A A137G A138C U151A | ≤ -4.2
A26C G59U A60C U145A | -2.83
A12G A16G A23U C38U C87U G141C G152A | ≤ -4.2
U13G A16U G42C G84A | ≤ -4.2
U6C C14A A49U G50U A52G C93G C99G | ≤ -4.2
A26U G59C U61A C75G A138C | ≤ -4.2
A113G | -0.894
C76U U104G A106U G128U U151G | ≤ -4.2
G94C C99U | -0.0105
C38G U53A G80A | -2.37
C32G A110C | ≤ -4.2
G59C U82C | 0.0118

Variant | polymerase ribozyme fitness (log ratio)
A16G G48A C57G G58A A60C G88A C114A G141A | ≤ -4.2
U7A C93U A115G | ≤ -4.2
C18G A21U | -0.776
A12G A17C G50C C63G C96U | -0.474
A3G A20G | -0.654
G92U C105G C125U A137G | -3.35
C35G G126U | -4.16
U15A A19C A23U G46C U53G C57A G68A G71A C93G U111G G141U | ≤ -4.2
C132A G143U | ≤ -4.2
C35U A41U C54U C76G C85A A98G | ≤ -4.2
G50U C95U | -0.241
A91G C95U | -2.75
A17U A20G A40C G126U | -0.583
A47C U82G A110G | -3.62
U61G G124C A147U | -1.99
A30G | -2.24
C32G A37U U53A | ≤ -4.2
C57U C95U U101C | -0.863
G46U G68C U78A C93G C99U G100C C118A A119U U144G G152A | ≤ -4.2
A52U A89C | -3.05
G86U U101G | -2.21

Variant | polymerase ribozyme fitness (log ratio)
G50U C54U G81C C85A G117A | -0.79
A37U C85G G86A G92C A115G | -3.98
A22U A98G | -0.232
A26G C85G G88C C125U G136A | ≤ -4.2
A24U C36U A60G G80A G94C | -3.57
G58A G141U | 0.0168
C79A C93A | -4.12
U6C A49C C99A U146C | ≤ -4.2
A26U C69U | -1.87
G46C C75U C93G U144A | ≤ -4.2
A26C A29U C54G A91G A97U | ≤ -4.2
C8U U13C C14A A20U G50C C63A G71A C79G G92U A119C G141A | ≤ -4.2
C8U U31G A40G G42U A52C C79G G84A C103A G133A U148G | ≤ -4.2
C36A G50A A64U A66C A98U U104A U109G U148G | ≤ -4.2
C10U C96A C125A | -3.69
U13A C32A G42A C75A C76U C87G A106C A138U G141C | ≤ -4.2
U61A G83A | -2.9
A115G C129G | -3.64
A39G U56G A66U G86U A107C | -3.99
A49C G50A G59U C69G C93U C99U U111G A150U | ≤ -4.2
